According to patent US20240287161A1 (NATIONAL UNIVERSITY CORPORATION TOTTORI UNIVERSITY, published 2024):

Columns and labels:
[1] = biological target: T1, HCoV-HKU1 trimeric S protein (amino acids 13-1293) with T4 foldon, histidine tag and strep-tag (HCoV-HKU1, UniProt Q5MQD0 13-1297); assay: ELISA on coated S-trimeric antigen, anti-human IgG-HRP [Human IgG1, NT-193]
T1 sequence: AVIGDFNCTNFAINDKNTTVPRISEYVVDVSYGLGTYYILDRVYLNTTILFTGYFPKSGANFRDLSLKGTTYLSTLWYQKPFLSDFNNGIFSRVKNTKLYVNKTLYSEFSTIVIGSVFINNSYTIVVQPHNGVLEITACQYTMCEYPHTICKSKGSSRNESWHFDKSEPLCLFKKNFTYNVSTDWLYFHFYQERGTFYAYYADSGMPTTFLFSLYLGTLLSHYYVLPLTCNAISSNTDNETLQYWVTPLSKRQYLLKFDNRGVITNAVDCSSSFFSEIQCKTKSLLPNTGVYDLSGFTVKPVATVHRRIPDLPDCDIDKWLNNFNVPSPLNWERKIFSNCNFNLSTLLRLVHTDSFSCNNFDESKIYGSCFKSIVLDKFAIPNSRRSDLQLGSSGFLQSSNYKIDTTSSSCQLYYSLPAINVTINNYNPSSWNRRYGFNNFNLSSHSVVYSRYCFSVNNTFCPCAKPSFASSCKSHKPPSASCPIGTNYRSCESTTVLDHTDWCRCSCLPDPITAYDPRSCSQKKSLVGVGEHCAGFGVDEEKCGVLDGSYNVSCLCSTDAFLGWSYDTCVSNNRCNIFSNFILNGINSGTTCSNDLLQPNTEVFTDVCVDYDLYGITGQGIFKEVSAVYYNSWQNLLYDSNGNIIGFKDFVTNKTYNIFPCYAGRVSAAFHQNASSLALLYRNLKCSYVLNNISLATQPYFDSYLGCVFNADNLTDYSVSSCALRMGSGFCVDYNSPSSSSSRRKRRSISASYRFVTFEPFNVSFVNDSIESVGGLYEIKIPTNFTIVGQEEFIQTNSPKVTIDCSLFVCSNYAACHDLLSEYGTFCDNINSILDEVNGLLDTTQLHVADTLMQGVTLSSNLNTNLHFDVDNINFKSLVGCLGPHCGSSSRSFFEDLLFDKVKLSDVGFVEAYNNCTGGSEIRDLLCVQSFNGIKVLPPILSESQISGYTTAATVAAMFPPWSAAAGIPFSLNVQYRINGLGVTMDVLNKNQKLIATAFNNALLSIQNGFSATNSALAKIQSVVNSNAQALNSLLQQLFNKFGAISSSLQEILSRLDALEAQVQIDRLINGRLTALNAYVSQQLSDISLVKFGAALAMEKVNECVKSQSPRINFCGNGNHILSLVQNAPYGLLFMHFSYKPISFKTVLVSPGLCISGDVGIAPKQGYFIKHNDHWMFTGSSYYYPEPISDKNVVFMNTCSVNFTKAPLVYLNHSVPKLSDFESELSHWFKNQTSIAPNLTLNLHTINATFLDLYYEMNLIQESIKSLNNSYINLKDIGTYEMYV

[2] = biological target: T2, HCoV-229E trimeric S protein (amino acids 12-1109) with T4 foldon, histidine tag and strep-tag (HCoV-229E, UniProt P15423 12-1112); assay: as above
T2 chain: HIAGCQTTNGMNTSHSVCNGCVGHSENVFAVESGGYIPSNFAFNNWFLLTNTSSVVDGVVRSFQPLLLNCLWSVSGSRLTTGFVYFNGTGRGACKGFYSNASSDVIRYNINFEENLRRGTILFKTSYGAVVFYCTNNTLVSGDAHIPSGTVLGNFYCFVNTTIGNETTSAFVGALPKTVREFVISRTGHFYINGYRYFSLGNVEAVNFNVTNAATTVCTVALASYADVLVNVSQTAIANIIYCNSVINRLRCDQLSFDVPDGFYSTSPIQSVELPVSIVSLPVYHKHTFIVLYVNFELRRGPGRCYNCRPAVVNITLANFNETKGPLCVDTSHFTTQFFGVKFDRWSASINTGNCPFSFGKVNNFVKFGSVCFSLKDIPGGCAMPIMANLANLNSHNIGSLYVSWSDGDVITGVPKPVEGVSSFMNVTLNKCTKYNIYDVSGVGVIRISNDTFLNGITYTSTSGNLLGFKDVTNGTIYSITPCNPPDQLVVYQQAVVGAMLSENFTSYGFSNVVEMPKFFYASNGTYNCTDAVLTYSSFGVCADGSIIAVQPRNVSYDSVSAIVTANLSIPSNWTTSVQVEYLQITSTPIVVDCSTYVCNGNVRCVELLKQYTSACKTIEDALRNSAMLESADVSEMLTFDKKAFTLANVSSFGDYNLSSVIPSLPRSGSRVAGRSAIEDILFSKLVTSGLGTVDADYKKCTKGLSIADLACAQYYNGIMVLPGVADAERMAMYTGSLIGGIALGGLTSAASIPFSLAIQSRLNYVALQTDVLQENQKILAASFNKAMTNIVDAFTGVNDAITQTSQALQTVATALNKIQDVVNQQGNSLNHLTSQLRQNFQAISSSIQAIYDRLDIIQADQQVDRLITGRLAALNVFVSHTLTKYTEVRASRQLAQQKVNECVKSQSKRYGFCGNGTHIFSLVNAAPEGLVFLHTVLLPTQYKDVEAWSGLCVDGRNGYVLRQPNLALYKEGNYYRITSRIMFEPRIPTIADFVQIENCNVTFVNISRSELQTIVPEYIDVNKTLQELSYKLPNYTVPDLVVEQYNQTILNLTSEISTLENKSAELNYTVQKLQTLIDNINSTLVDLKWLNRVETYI

B1: NT-193 (recombinant human IgG1/kappa antibody) (antibody, V domains shown)
VH: EVQLQQWGAGLLKPSETLSLTCAVYGGSFSGYYWSWIRQPPGKGLEWIGEINHSGSTNYNPSLKSRVTISVDTSKNQFSLKLSSVTAADTAVYYCARGWDLDYYYGMDVWGQGTTVTVSS
VL: DIRMTQSPSAMSASVGDRVTVTCRASQGIGNYLAWFQLKPGKVPKRLIYAASSLQSGVPARFSGGGSGTEFTLTISSLQPEDFATYYCLQHGFLPWTFGQGTKLEIK
binding result [1]: no binding (tested: 1000 ng/ml) | binding result [2]: no binding (tested: 1000 ng/ml)
